Data published in patent US20240417704.

Assays:
[1] = target: Hel308 Mbu-E284Faz E284Faz (Methanococcoides burtonii) (UniProt Q12WZ6); conditions: four nitroindoles between SEQ 155 3' end and SEQ 154 5' end; percent of movements reaching polyT; nanopore; 960 mM KCl, 10 mM MgCl2, 1 mM ATP, +120 mV
[2] = target: Hel308 Mbu-E284Faz heat treated E284Faz (Methanococcoides burtonii) (UniProt Q12WZ6); conditions: four nitroindoles between SEQ 155 3' end and SEQ 154 5' end; percent of movements reaching polyT; 500 nM enzyme; nanopore; 960 mM KCl, 10 mM MgCl2, 1 mM ATP
Hel308 Mbu-E284Faz heat treated E284Faz (Methanococcoides burtonii), sequence (Q12WZ6 whole entry): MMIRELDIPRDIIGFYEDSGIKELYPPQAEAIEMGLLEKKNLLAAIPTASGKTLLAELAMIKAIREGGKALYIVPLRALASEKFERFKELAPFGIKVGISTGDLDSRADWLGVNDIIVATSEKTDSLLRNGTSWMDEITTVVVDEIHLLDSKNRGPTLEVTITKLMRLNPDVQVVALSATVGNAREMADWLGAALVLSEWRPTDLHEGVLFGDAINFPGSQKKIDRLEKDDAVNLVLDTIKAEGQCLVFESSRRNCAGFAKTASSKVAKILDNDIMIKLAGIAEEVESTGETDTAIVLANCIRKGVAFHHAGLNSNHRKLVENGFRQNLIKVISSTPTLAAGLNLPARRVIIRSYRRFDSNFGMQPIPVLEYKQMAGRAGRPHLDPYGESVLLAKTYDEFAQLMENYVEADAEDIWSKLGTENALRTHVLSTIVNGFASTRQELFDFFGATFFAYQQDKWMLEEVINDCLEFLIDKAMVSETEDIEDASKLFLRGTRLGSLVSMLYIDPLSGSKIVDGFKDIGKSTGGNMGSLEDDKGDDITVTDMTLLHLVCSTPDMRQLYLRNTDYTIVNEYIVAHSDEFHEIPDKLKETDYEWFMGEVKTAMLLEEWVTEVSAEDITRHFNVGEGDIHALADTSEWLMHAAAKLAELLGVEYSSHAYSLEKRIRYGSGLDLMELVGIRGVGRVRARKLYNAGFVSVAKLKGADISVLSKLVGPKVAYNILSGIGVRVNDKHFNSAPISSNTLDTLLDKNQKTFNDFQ

Hel308 Mbu-E284Faz E284Faz (Methanococcoides burtonii), sequence (Q12WZ6 whole entry): as above

3.6 kb DNA
activity [1]: 28% | activity [2]: 71%
